In the nanobody polyreactivity screen of Harvey et al. (2022):

Assay: yeast display, Sf9 membrane polyspecificity reagent, FACS + sequencing; frameworks hold sequencing errors
How it was run: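 Synthetic nanobody libraries on Saccharomyces cerevisiae BJ5465 were galactose-induced for 36–48 hours, stained 1 hour at 4 °C with 10% biotinylated, detergent-solubilized Sf9 membrane reagent and enriched on streptavidin microbeads. FACS then separated cells into low and high (top ~1%) gates by anti-HA (expression) and streptavidin (reagent binding) fluorescence. Genes were colony-PCR amplified, MiSeq 2 × 250 sequenced and CDR-length filtered. A clone's polyreactivity label is that of its gate of origin.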

Row | Sequence | polyreactivity (PSR sort gate)
1 | QVQLVESGGGLVQAGGSLRLSCAASGIYAMGWYRQAPGKERELVAAIRWSGGSTYYADSVKGRFTISRDNAKNTVYLQMNSLKPEDTAVYYCAKRLRPGGYWYDYWGQGTQVTVSS | high polyreactivity
2 | QVQLVESGGGLVQAGGSLRLSCAASGIYYNAMGWYRHAPGKERELVAAITTGDRTNYADSVKGRFTISRDNAKNTVYLQMNSLKPEDTAVYYCNAVVERLSSTARDFAYDYWGQGTQVTVSS | low polyreactivity
3 | QVQLVESGGGLVQAGGSLRLSCAASGLAFVFNAMGWYRQAPGKERELVAAISSGDDTNYADSVKGRFTISRDNAKNTVYLQMNSLKPEDTAVYNCAKTSDPIKRPYYYWGQGTQVTVSS | low polyreactivity
4 | QVQLVESGGGLVQAGGSLRLSCAASGLFFFYYAMGWYRQAPGKERELDAAIRTNYADSVKGRFTISRDNAKNTVYLQMNSLKPEDTAVYYCAAESSQTPTSAFDYWGQGTQVTVSS | low polyreactivity
5 | QVQLVESGGGLVQAGGSLRLSCAASGLIFAHYAMGWYRQAPGTERELVAGITSGGSTNYADSVKGRFTISRDNAKNTVYLQMNSLKPEDTAVYYCNADRAGFLGFYLYDYWGQGTQVTVSS | low polyreactivity
6 | QVQLVESGGGLVQAGGSLRLSCAASGLIFARNAMGWYRQAPGKERELVAAISRSGSTNYADSVKGRFTISRDNAKNTVYLQMNSLIPEDTAVYYCAAGPWGTGHYVQGPVYYYRYDYWGQGTQVTVSS | low polyreactivity
7 | QVQLVESGGGLVQAGGSLRLSCAASGLIFARNAMGWYRQAPGKERELVAAISSSGNTYADSVKGRFTISRDNAKNTVYLQMNSLKPEDTAVYYCNKYGVVLPGFDYWGQGTQVTVSS | high polyreactivity
8 | QVQLVESGGGLVQAGGSLRLSCAASGLIFDDYDMGWYRQAPGKERELVAAISLSGGSTFYADSVKGRFTISRDNAKNTVYLLMNSLKPEDTAVYYCAAQARRAYVQTRKYYWGQGTQVTVSS | high polyreactivity
9 | QVQLVESGGGLVQAGGSLRLSCAASGLIFDINAMGWYRQAPGKERDLVAAISFSDGITYYADSVKGRFTISRDNAKNTVYLHMNSLKPEDTAVYYCAVDYRIYRSGPMDYWGQGTQVTVSS | high polyreactivity
10 | QVQLVESGGGLVQAGGSLRLSCAASGLIFDYYAMGWYRQAPGKERELVAAITSSSGITYYADSVKGRFTISRDNAKNTVYLQMNSLKPEDTAVYYCAAYTTYKLYEYDYWGQGTQVTVSS | low polyreactivity
11 | QVQLVESGGGLVQAGGSLRLSCAASGLIFEEYAMGWYRQAPGKERELVAGIDSSGSTNYADSVKGRFTISRDNAKNTVYLQMNSLKPEDTAVYYCTARGYYPRWYYVFRGNYWGQGTQVTVSS | low polyreactivity
12 | QVQLVESGGGLVQAGGSLRLSCAASGLIFFYYAMGWYRQAPGKERELVATINWNGGSTYYADSVKGRFTISRDNAKNTVYLQMNSLKPEDTAVYYCAADAPAGGDSDNDYWGQGTQVTVSS | high polyreactivity
13 | QVQLVESGGGLVQAGGSLRLSCAASGLIFGFYAMGWYRQAPGKERELVAAINSGGITYYADSVKGRFTISRDNAKNTVYFQMNSLKPEDTAVYYCNKDSHISTAYDYWGQGTQVTVSS | low polyreactivity
14 | QVQLVESGGGLVQAGGSLRLSCAASGLIFGGNAMGWYRQAPGKERELVAAISRTGGRTYYADSVKGRFTISRDNAKNTVYLQMNSLKPDDTAVYFCAAAAQRPEGYYWGQGTQVTVSS | high polyreactivity
15 | QVQLVESGGGLVQAGGSLRLSCAASGLIFGGNAMGWYRQAPGKERELVAAITYRTGSTYYADSVKGRFTISRDNAKITVYLQMNSLKPEDTAVYDCAAAVSLGYPVAFYYWGQGTQVTVSS | low polyreactivity
16 | QVQLVESGGGLVQAGGSLRLSCAASGLIFGGYTMGWYRQAPGKERELVAAIDSGGSTKYADSVKGRFTISRDNAKNTVYLQMNSLKPEDTAVYYCAARDYYAWRYRYHHEVSEFDYWGQGTHVTVSS | low polyreactivity
17 | QVQLVESGGGLVQAGGSLRLSCAASGLIFGNNAMGWYRQAPGKERELVAAISWSTGGSTYYADSVKGRFTISRDNAKNTVYLQMNSLKPEDTAVYYCAAQYSYGEYWGYDYWGQGTQVTVSS | low polyreactivity
18 | QVQLVESGGGLVQAGGSLRLSCAASGLIFGRYAMGGYRQAPGKEREFVAAITWRVGTTYYADSVKGRFTISRDNAKITVYLQMNSLKPEDTAVYYCAARSRTGRYDYWGQGTQVTVSS | high polyreactivity
19 | QVQLVESGGGLVQAGGSLRLSCAASGLIFGSYAMGWYRQAPGKERELVAAINKSGGSTYYADSVKGRFTISRDNAKNTVYLQMNSLKPEDTAVYYCAKGRSKYYQPGQRDYWGQGTQVTVSS | high polyreactivity
20 | QVQLVESGGGLVQAGGSLRLSCAASGLIFGTYAMGWYRQAPGKERELVAVISSSGGSTYYADSVKGRFTISRDNAKNTVYLQMNSLKPEDTAVYYCNARAFRQGHFEYDYWGQGTQVTVSS | low polyreactivity
21 | QVQLVESGGGLVQAGGSLRLSCAASGLIFGVNAMGLYRQAPGTESELVAAITSRGGSTYYADSVKGRFTISRDNAKNTVYLQMNSLKPEDTAVDYCAAKYAYYEPYSWRPQRTYNYWGQGTQVTVSS | high polyreactivity
22 | QVQLVESGGGLVQAGGSLRLSCAASGLIFGWNAMGWYRQAPGKERELVAAITWNGGSTYYADSVKGRFTISRDNAKITVSLQMNSLKPEDTAVYYCAARVGWNIRGYDYWGQGTQVTVSS | low polyreactivity

Row | Sequence | polyreactivity (PSR sort gate)
23 | QVQLVESGGGLVQAGGSLRLSCAASGLIFGYYAMGCYRQAPGKERELVAAISSSGSTYYADSVKGRFTISCDNEKNTVYLQMNSLKPEDTAVYYCNVDISSYGGDYWGQGTQVTVSS | low polyreactivity
24 | QVQLVESGGGLVQAGGSLRLSCAASGLIFGYYAMGWYRQAPGKEREFVAAIDGSDGTTYYADSVKGRFTISRDNAKNTVYLQMNSLKPEDTAVYFCNADSSSYSSDLGYDYWGQGTQVTVSS | low polyreactivity
25 | QVQLVESGGGLVQAGGSLRLSCAASGLIFGYYAMGWYRQAPGKESELVDAFSFSGGSTYYADSVKGRFTISRDNAKNTVYLQMNSLKPEDTAVYYCAADLDGSSEYEYWGQCTQVTVSS | low polyreactivity
26 | QVQLVESGGGLVQAGGSLRLSCAASGLIFGYYTMGWYRQAPGKEREFVAAISRGGGSTYYADSVNGRFTISRDNAKNTVYLHMNSLKPEDTAVYYCAAVVYGQVQPAYDYWGQGTQVTVLS | high polyreactivity
27 | QVQLVESGGGLVQAGGSLRLSCAASGLIFHGYAMGWYRQAPGKERELVAVITKNGGRTYYADSVKGRFTISRDTAKNTVYLQMNSLKPEDTAVYYCATGKNYWRGYEYWGQGTQVTVSS | high polyreactivity
28 | QVQLVESGGGLVQAGGSLRLSCAASGLIFHKNAMGWYRQAPGKERELVATITSGGNTNYADSVKGRFTISRDNAKNTVYLQMNSLKPEDTAVYYCAKDTHLLNEHSGTSREYDYWGQGTQVTVSS | low polyreactivity
29 | QVQLVESGGGLVQAGGSLRLSCAASGLIFHQYAMGWYRQAPGKERELVAAITRSGTRTYYADSVKGRFTISRDNAKNTVYLQMNSLKPEDTAVYYCAAGDTQGVSMDYWGQGTQVNVSS | high polyreactivity
30 | QVQLVESGGGLVQAGGSLRLSCAASGLIFIAYAMGWYRQAPGKDRELVAAISSGGSTYADSVKRRFTISRDNAKNTVYLQMNSLKPEETAVYYCNADSWSGTTYFNFNYWGQGTQVTVSS | low polyreactivity
31 | QVQLVESGGGLVQAGGSLRLSCAASGLIFIAYAMGWYRQAPGKEREFVAAITWNGVSTYYADSVKGRFTISRDNAKNTVYLQMNSLKPEDTAVYYCNADYVFSPWAYEYWGQGTQVTVSS | high polyreactivity
32 | QVQLVESGGGLVQAGGSLRLSCAASGLIFILYAMGWYRQAPGKERELVAAISWTGGSTYYADSVKGRFTISRDNAKNTVYLQMNSLKPEDTAVYYCNKVGVRSGARSIYVVRRYEYWGQGTQVTVSS | high polyreactivity
33 | QVQLVESGGGLVQAGGSLRLSCAASGLIFIQYAMGWYRQAPGKEREFVAAISWSGTSTHYADSVKGRFTISRDNAKNTVYFQMNSLKPEDTAVYYCAAAKTGRGRGTTGYGYWGQGTLVTVSS | high polyreactivity
34 | QVQLVESGGGLVQAGGSLRLSCAASGLIFITYAMGWYRQAPGKERELVATITLRGGSTYYADSVKGRFTISRDNAKNTVYLQMNSLKPEDTAVYYCAARYFSYYILRRIYPVREDYWGQGTQVTVSS | low polyreactivity
35 | QVQLVESGGGLVQAGGSLRLSCAASGLIFKSYAMGWSRQAPGKERELVAVISSSGGSTYYADSVKGRFTISRDNAKNTVYLQMNSLKPEDTAVYYCAARSTYRTGDYWGQGTQVTVSS | high polyreactivity
36 | QVQLVESGGGLVQAGGSLRLSCAASGLIFKVYALGWYRQAPGQERELVAAITYSGGSTDYADSVKGRFTISRDNAKNTVYLQMNSLKPEDTAVYYCNVETVGHVNSYGYDYWGQGTQVTVSS | low polyreactivity
37 | QVQLVESGGGLVQAGGSLRLSCAASGLIFKWYGMGWYRQAPGKERELVAAITENGGSTYYADSVKGRFTISRDNAKNTVYLQMNSLKPEDTAVYYCAAETWADWYSEFYWGQGTQVTVSS | high polyreactivity
38 | QVQLVESGGGLVQAGGSLRLSCAASGLIFKYNAMGWYRHAPGKERELVAAISTSGGSTYYADSVKGRFTISRDNAKNTVYLQMNSLKPEDNAVYFCNAVAGRPFRYYYWGQGTQVTVSS | high polyreactivity
39 | QVQLVESGGGLVQAGGSLRLSCAASGLIFKYNAMGWYRQAPGKERELVAAITWSGGITYADSVKGRFTISRDNAKNTVYLQMNSLKPEDTAVYYCAARGYWQPRPRRRYDYWGQGTQVTVSS | high polyreactivity
40 | QVQLVESGGGLVQAGGSLRLSCAASGLIFKYNGRGWNRQAPGNVRELGAAITKRGGSTYYADSVKGRFTISRDKAKNTVYLQMNSLKPEDTAVYYCAAGRAGRKDYYWGQGTQVTVSS | high polyreactivity
41 | QVQLVESGGGLVQAGGSLRLSCAASGLIFLDYAMGWYRQAPGKERELVAAISRSGGRTYYADSVKGRFTISGDNAKNTVYLQMNSLKPEDTAVYYCAADGSRKSEIYDYWGQGTQVTVSS | high polyreactivity
42 | QVQLVESGGGLVQAGGSLRLSCAASGLIFLEYAMGWYRQAPGKEREMVAAISTSGGSTYYADSVKGRFTISRDNAKNTVYLQLNSLTPEDTAVYYCAADPVYNYYFDDGDYWGQGTQVTVSS | low polyreactivity
43 | QVQLVESGGGLVQAGGSLRLSCAASGLIFLGNAMGWYRQAPGKERELVAAISRSGGTTYYADSVKGRFTISRDNAKNTVYLQMNSLKPEDTAVYYCNAYNPYYRATVSSRGYGYWGQGTQVTVSS | high polyreactivity
